The DeepSol protein solubility set

Experiment: soluble on expression in E. coli; label from the status in PepcDB or PDB records

Sequence	soluble on expression in E. coli
MSLRSQQSGILGVIVADIRNPYFTALIRAVEEVAYRAGMRVTLCNTDEDPEREALYLELMQEERITGLIFAPTRVTVGRMHELALDYPTVLVDRAGPGSRYDSVVLDNGAAMAELVAHLQAQGYRRIGGLFGSTSTTAAERRDGYLAAMRAQGLQPDYREVAPTAEAAIAELGAWLANDQRPEAIVTSNSLLLMGALKAARTAGLRLPQDLALAGFDNERWTDLVEPGITVVEQPVEDMGRAAMSLLLERLSNRQLPIRRLVMTGRCVVRGSTAEGHHHHHH	soluble
MAGDPMNDVSKASLPKAIFLMGPTASGKTALAIELRKVLPVELISVDSALIYRGMDIGTAKPNADELKAAPHRLLDIRDPSQAYSAADFRRDALAQMAEITAAGRIPLLVGGTMLYFKALLEGLSPLPSADPEVRSRIEQQAAELGWEALHQQLQEIDPVAAARIHPNDPQRLSRALEVFFISGKTLTELTQTSGDALPYQVHQFAIAPASRELLHQRIELRFHQMLASGFEAEVRALFARGDLHTDLPSIRCVGYRQMWSYIEGEISYDEMVYRGVCATRQLAKRQMTWLRGWEGVRWLDSENPDRARKEVLQVVGAIADLEHHHHHH	soluble
SRVFLDHNALPDTLKVTYDSFCSNGVTHRNQPRGDCDGVQINVPITFQVKVTATECIQEQSFVIRALGFTDIVTVQVLPQCECRCRDQSRDRSLCHGKGFLECGICRCDTGYIGKNCEHH	soluble
AHHHHHHGSFEISIYLPTEIVFGPGKLEMLPKLVKKHGLSGKALIVTGRRSTKETGVLYRVQELLKQAGVESIVFDKIIPNPISTHVDEGAEIARKENVSFVVGLGGGSAIDSAKAIAMTAASGGKYWDYVPAVGGGKKPTGALPIVAIPTTHGTGTEADPYAVITNPETKEKQGIGYDVLFPKFSIVDPELMLTLPKDQTVYTSMDAFYHSIEAFLNVRANPYSDVLALDSMRRIVTYLPLAYENLRNLEARTQLAWASTEAGITETVTGVVANHALEHGLSGFYPEVPHGLGLCILGPYLFEYILDYAYEKLAIVGREVFGVYEPNDRKAAELAIKKLRDFQSLFGVNKKLRELGVKEEDIPEMARTAYRMMKPVIEATPGDLKVEDLEEIYRRAY	soluble
MAHHHHHHMDVEERTRRCSSLGLAVRNLPRDTASSFVHKFFEDHVGCVQEVMMHSSRPNQSRNIAAPNTNGVDQGKRGNDDNDPPASFGLSGRRDGNSSSGIAVKTCSNDADGNTLCLVFFSAAECVRLAKLLYMRRPELFNVLGVVDGKELRLTIPSKLIRLSRTAHAHCDDGDNTRSKKSSQGEEDTPKGDAEKNDAGT	not soluble
MRTKDIYRLELRKIKIDKRMMKRILRLGIPSGIQQSIISLSNVVVQANVNIFGSTVMAGFGAYNKVDGFVVLPMQSFCMAATTFTGQNIGAGKPERIREG	not soluble
MSDLKNLILNSSILLDTSSTVQNDLNPEQLINVHEDSDGGRDLLTPESFILLMAEILSTNNADTICEYEHQNSADNKVLQNLQFKEVEEDEQIEGLNEQKKSLDNPLWHDVDLPVINEISGNQCEGQFESTLEKNVALTWINSENFQPPIVKPENQTDETYKIWDSEITSIESGKLKLDFPKADYDGNNINPYQKEAINQPGNDSSKNHQLIKGNDSFPILEDIKTNAEPGTKAIKSEVEATKVGTEIPGSSFQMNQKAGSDIQPPVVSNSHIPKNFSIPIHVNHSQWSEQLSEHIVWLGHQDVKSALIKIHPEELGPLEINVKVVKDNASVNISTHSVYVKEIVDQAIPRLREMMAQQGINLSEVHIGTDTSSRQGSQKNHHAEIDLIQSAEDKNKITSLTRHLPKGLVDYFA	not soluble
MKHQHQHQHQHQHQMHQTEDYCLASNKVGRCRGSFPRWYYDPTEQICKSFVYGGCLGNKNNYLREEECILACRGV	soluble
MASNSSSCPTPGGGHLNGYPVPPYAFFFPPMLGGLSPPGALTTLQHQLPVSGYSTPSPATIETQSSSSEEIVPSPPSPPPLPRIYKPCFVCQDKSSGYHYGVSACEGCKGFFRRSIQKNMVYTCHRDKNCIINKVTRNRCQYCRLQKCFEVGMSKESVRNDRNKKKKEVPKPECSESYTLTPEVGELIEKVRKAHQETFPALCQLGKYTTNNSSEQRVSLDIDLWDKFSELSTKCIIKTVEFAKQLPGFTTLTIADQITLLKAACLDILILRICTRYTPEQDTMTFSDGLTLNRTQMHNAGFGPLTDLVFAFANQLLPLEMDDAETGLLSAICLICGDRQDLEQPDRVDMLQEPLLEALKVYVRKRRPSRPHMFPKMLMKITDLRSISAKGAERVITLKMEIPGSMPPLIQEMLENSEGLDTLSGQPGGGGRDGGGLAPPPGSCSPSLSPSSNRSSPATHSP	soluble
MKIFVVGAHGQIGQLLVHRLLDRGDTVTGGYRDPIAQTPDPEKNFRAVELDLSWPVDRLADLYAGHDAIVFAAGSRGQDLLGVDLDGAVKTMKAAERADISRFIMLSALDAEDPDKWPDQLHDYYIVKYYADEWLIHNTDLDYVIVQPTALTNDPAQGSITLQPQRPSSIPRADVADVLVAALDSNRHRDTVKIASGNEAIVKALHVLEHHHHHH	not soluble
MGSDKIHHHHHHHLKTQAISFVIHFAHRPVKRYDSPLSFLCSRRVQKIKIMLRATSLFITLGLSHSAWALVPPDYQEPPSDFSAEIEAGLQINTGNTESSSFNGRTKLVYDTDKFRQEGVFKAYFASDSEKTTSEKYDVQLQSSYKIYSGYIFARGDFTEDRFGSYTRISTVSTGYGFDAISGDSTKLSLEVGPGYRYNLPQVSESVPDPEADREIILRTAAKFEQKIHEYTSFNADLTAETGEANNTVTLDMSYKNTLFQDWAFKIGMNIKYTEVVPEGSKQTDTVTTFNLLYTFK	not soluble
MTEFELPPKYITAANDLRSDTFTTPTAEMMEAALEASIGDAVYGEDVDTVRLEQTVARMAGKEAGLFCVSGTLSNQIAIRTHLMQPPYSILCDYRAHVYTHEAAGLAILSQAMVVPVVPSNGDYLTLEDIKSHYVPDDGDIHGAPTRLISLENTLHGIVYPLEELVRIKAWCMENGLKLHCDGARIWNAAAQSGVPLKQYGEIFDSISICLSKSMGAPIGSVLVGNLKFVKKATHFRKQQGGGIRQSGMMARIALVNINNDWKSQLLYSHSLAHELAEYCEAKGIPLESPADTNFVFINLKAARMDPDVLVKKGLKYNVKLMGGRVSFHYQVTRDTLEKVKLAISEAFDYAKEHPFDCNGPTQIYRSESTEVDVDGNAIREIKTYKY	soluble
MGSDKIHHHHHHSDSLQSAYDTDATYRDKAGKKESGYTATFTETCNSENDVQIIVDYTVEPNNKSDVEIFQDRMDIIKDNTNASDIYADGGYYGENVINKANSKGIEIQLHYTDMTGKTAPEGQLPAHHFVFNKDMEMVQCPGGQIPSSSKYNSKTKITTSHFPKEVCNNCPHRCNCPLKEQKRDMVVRISKKSILASQVRETVNDPHIKHENISKRAAIEGTNSAIKGCQGAKRLRVRGKIKCTLQIGFKVIGHNFKQIFRALTKQIKKPKIKTKGLLCPNPN	not soluble
MGHHHHHHSHMAAVDIRDNLLGISWVDSSWIPILNSGSVLDYFSERSNPFYDRTCNNEVVKMQRLTLEHLNQMVGIEYILLHAQEPILFIIRKQQRQSPAQVIPLADYYIIAGVIYQAPDLGSVINSRVLTAVHGIQSAFDEAMSYCRYHPSKGYWWHFKDHEEQDKVRPKAKRKEEPSSIFQRQRVDALLLDLRQKFPPKFVQLKPGEKPVPVDQTKKEAEPIPETVKPEEKETTKNVQQTVSAKGPPEKRMRLQ	soluble
MLKPKEINTENKSKKRIYLSSPHMSDEGYEKQYINEAFETNWIAPLGKNVDEFEKELAAKVGIKAAAALSSGTAAIHMALKAAGVGEGDIVFCPTLTFAATANPIIYQNAIPVFIDSDYETWNMSPEALEEAFKKYPKVKAVLVVHLYGLSADMDKIVEICKKHDVQLIEDAAESLGTTYKGRYTGTIGDYGIYSFNGNKIITTSGGGMLVSDNEERIAKVRFWATQARDNARHYQHSELGYNYRMSNVIAGIGRGQLKVLDQRIEKKRYIFDFYKRELGCIDEIDFMPVNDWNKPNCWLTCITLTGKVRPLDVIIRLEEENIESRPVWKPMHMQPFYQHYDYIGSNVSEKIFENGVCLPSDTKMTDEDLYRVVNIIKGLWK	not soluble
MNLLPYQFVGEVVRGFGRGGKELGCPTANMDGTVVNGLPEGLPVGVYFGTAKLDGKSYKMAMSIGWNPQYQNEKKTVELHLIDYSGSDFYGKTLSAVIIGFIREMKSFESLDELKSAIAMDIKVARRGSVEQGKL	not soluble
